Series [1] concerns human platelet rich plasma (PRP). The series is classed as cell-based. Conditions: method of Example 1 (collagen-induced, human PRP); read-out: IC50 determined by platelet aggregation inhibition assay. As for the experimental part: To isolate Saxatilin from the venom of Agkistrodon saxatilis emelianov, 302.4 mg of crude venom from the snake was applied to a SEPHADEX™ G-75 gel filtration column (1.8×100 cm) equilibrated with PBS buffer, and fractionated at a flow rate of 20 ml/h. The activity of Saxatilin was determined by the platelet aggregation inhibition assay: The concentrated human platelet rich plasma (PRP) obtained from 400 ml of human blood was diluted to the concentration of 300,000 platelets/μl. The diluted PRP (450 μl) was mixed with 50 μl of PBS and then incubated in the aggregometer CHROMO-LOGT™, USA) at 37° C. for 3 minutes. After collagen ([…]) was added into the PRP solution to induce the platelet aggregation, the difference of light transmittance was measured.
Recombinant Saxatilin obtained in Example 6 was assayed by the platelet aggregation inhibition method described in Example 1, and compared with those of wild-type Saxatilin obtained in Example 1 and GRGDSP (SEQ ID NO:7) (see: Table 1), respectively.

Series [2] deals with αVβ3 integrin on HUVEC surface. Description: HUVEC adhesion to Vitronectin-coated plate. The series is classed as cell-based, human. As to conditions: pre-incubation of bFGF-stimulated HUVEC 20 min; FIG. 4a. Here is the method:
To confirm that inhibition of HUVEC proliferation by Saxatilin is due to the direct interaction of Saxatilin with Vitronectin receptor, αVβ3 integrin, localized on the HUVEC surface, it was investigated whether Saxatilin blocks HUVEC from binding to Vitronectin-coated 96-well plate.
(§1) 96-well plate was coated with recombinant Saxatilin obtained in Example 6 (1 μg/well) as well as Vitronectin (0.5 μg/well) which were dissolved in phosphate buffered saline (PBS) for 16 hr at 4° C. After washing the plate, 10 mg/ml of heat-treated bovine serum albumin (BSA) was added for blocking of uncharged protein binding site. The plate was incubated for 1 hr and washed with PBS. HUVEC was trypsinized and washed with PBS three times, and then, resuspended in serum-free DMEM. 5×10^4 cells were mixed with anti-αVβ3 monoclonal antibody, a synthesized RGD peptide, GRGDSP (SEQ ID NO:7), a synthesized RGE peptide, GRGETP (SEQ ID NO:8) and Saxatilin, and pre-incubated for 20 min at 37° C. Then, the mixture was added to the wells of both Saxatilin and Vitronectin-coated 96-well plate. After 1 hr of incubation at 37° C. under an environment of 5% CO2, the plate was washed with PBS to remove unbound cells, and bound cells were fixed and stained with Coomassie blue. Optical absorbences of the wells were measured at 540 nm to count relative cell numbers (see: FIGS. 4a and 4b).

Series [3] has as its system αVβ3 integrin on HUVEC surface. Description: HUVEC adhesion to Saxatilin-coated plate. The series is classed as cell-based, human. As to conditions: pre-incubation of bFGF-stimulated HUVEC 20 min; FIG. 4b. Here is the method:
as §1

Series [4] relates to human platelet rich plasma. Description: Platelet aggregation inhibition assay, ADP-induced (Example 5). The series is classed as cell-based.
Description: After ADP was added into each of the PRP solutions to induce the platelet aggregation, the turbidity was measured, respectively (see: FIG. 1).
The test system of a further series is ICR mice. Description: Collagen/epinephrine-induced thrombosis in mice, viability. The series is classed as in vivo, mouse. As to conditions: 10 min before collagen + epinephrine. Here is the method:
When a mixture of collagen and epinephrine was injected into mice intravenously, thrombus was formed in pulmonary artery, which led to paralysis, dilation of pupil, laboring breath and convulsions, and finally 70% of the mice died not more than 5 min. Thus, it was investigated whether the intravenous injection of recombinant Saxatilin could reduce the thrombosis symptoms.
At 10 minutes after Saxatilin (0, 0.1, 0.25 and 0.5 mg/kg dissolved in 0.1 ml PBS, respectively) was intravenously injected into the tails of ICR mice, the mixture of collagen and epinephrine (120 μg collagen and 12 μg epinephrine in 0.1 ml PBS) was also injected into the tails of ICR mice, intravenously, and the viability was determined (see: Table 2).

In another series the test system is HUVEC. Description: bFGF-stimulated HUVEC proliferation inhibition assay. The series is classed as cell-based, human. Conditions: 0, 20, 30 μg/ml; 1 ng/ml bFGF; 72 hr; FIG. 3.
Series [5] concerns chick chorioallantoic membrane (CAM). Description: Chick chorioallantoic membrane (CAM) assay, bFGF-stimulated angiogenesis. As to conditions: 5 μg applied to CAM, observed at 72 hr; FIG. 5b. The series is classed as in vivo. As for the experimental part:
Chick chorioallantoic membrane (CAM) assay, a simulated in vivo model, was carried out to examine the effect of Saxatilin on bFGF-stimulated angiogenesis. A part of the rind of fertilized 3-day-old egg was broken carefully, and sealed with transparent tape, and incubated for 10 days at 37° C. under an environment of 60% humidity. Then, bFGF was applied to the chick chorioallantoic membrane (CAM) of individual embryo (6 ng/embryo) to induce angiogenesis. After further incubation of 24 hr, PBS as a negative control and 5 μg recombinant Saxatilin obtained from Example 6 were applied to CAM, respectively. At 72 hr after treatment, the blood vessels of embryos were observed (see: FIGS. 5a and 5b).

Series [6] has as its system Lewis lung carcinoma cells. Briefly: Metastatic Lewis lung carcinoma growth in mice. The series is classed as in vivo, C57BL/6 mice. Here is the method:
1×10^6 Lewis lung carcinoma cells (purchased from […], Rockville, Md., USA) were injected into the tails of 8-week-old male C57BL/6 mice (Charles river, Japan), intravenously. At 4 day after injection, recombinant Saxatilin obtained from Example 6 was periodically applied to mice by intravenous injection in an amount of 1.25 mg/kg/day (once per day). After 4-weeks of periodical treatment, tumor-bearing mice were sacrificed, and the number of tumor colony was counted by using stereomicroscope.
Furthermore, to observe the direct effect of Saxatilin on the metastatic lung carcinoma, histochemical study was carried out. Tumor-bearing lung tissue was fixed in paraffin in accordance with the conventionally known method followed by treatment of Bouin's solution for 4 hours. The tissue section of 4 μm thickness was infiltrated with trypsin at 37° C. for 10 min and washed with PBS. The tissue section was stained with hematoxylin and eosin, and then mounted (see: FIGS. 6a, 6b and 6c). FIG. 6a is a photograph showing lung tissue without Lewis lung carcinoma cell; FIG. 6b, lung tissue implanted with Lewis lung carcinoma cell and then treated with PBS; and, FIG. 6c, lung tissue implanted with Lewis lung carcinoma cell and then treated with Saxatilin. […] As illustrated as above, it was assumed that the suppression of metastatic tumor growth in Saxatilin-treated mice was due to blockade of Saxatilin against angiogenesis, which was essential for the secondary tumor growth.

The next series concerns male C57BL/6 mouse. Briefly: Acute toxicity (LD50). The series is classed as in vivo. Conditions: subcutaneous injection, 7 days. Here is the method: To examine the acute toxicity of Saxatilin as anti-platelet aggregation agent and anti-tumor agent, Saxatilin was injected into male C57BL/6 mouse subcutaneously and the dead were counted to determine LD50 for 7 days.
A further series concerns BCE cell. Briefly: bFGF-stimulated BCE cell proliferation. The series is classed as cell-based.
[7] abbreviates: 1.25 mg/kg/day i.v. from day 4, 4 weeks, C57BL/6 mice.

As for `N=C(N)NCCC[C@H](NC(=O)CN)C(=O)NCC(=O)N[C@@H](CC(=O)O)C(=O)N[C@@H](CO)C(=O)N1CCC[C@H]1C(=O)O` [GRGDSP, reference compound], the IC50 in series [1] was 270000 nM. Further, the “HUVEC adhering to Vitronectin” value in series [2] is listed as “prevented HUVEC from adhering”. Also, in [3], the “HUVEC adhering to Saxatilin” value is on record as “prevented HUVEC from adhering”.

B1: Saxatilin (protein)
chain: EAGEECDCGAPANPCCDAATCKLRPGAQCAEGLCCDQCRFMKEGTICRMARGDDMDDYCNGISAGCPRNPFHA
B1 returned an IC50 in series [4] (ADP-induced aggregation, human PRP, 25° C.) of 179 nM. Besides, the “inhibitory effect relative to GRGDSP peptide” value in series [4] (ADP-induced platelet aggregation, more potent than GRGDSP) turned out to be 1000 times. In addition, in the series with ICR mice (0.1 mg/kg i.v.), the “Mortal group/Total group” value is listed as 16/20 and the Viability was 20. For the same molecule, in the series with ICR mice (0.25 mg/kg i.v.), the “Mortal group/Total group” value is 11/20 and the Viability is 55. Besides, in the series on ICR mice (0.5 mg/kg i.v.), the “Mortal group/Total group” value was 3/20 and the Viability stood at 85. Moreover, the “effect on HUVEC growth” value with HUVEC is on record as “inhibited the HUVEC growth in a dose-dependent manner”. The “HUVEC adhering to Vitronectin” value in [2] is given as “prevented HUVEC from adhering”. In series [3], the “HUVEC adhering to Saxatilin” value is listed as “prevented HUVEC from adhering”. Further, the “effect on bFGF-stimulated angiogenesis (CAM)” value in series [5] is “had an inhibitory effect on angiogenesis”. Further, in series [6] (setting [7]), the Average colony number stood at 0.7 ± 0.6 and the “Inhibition rate (%)” value was 95%. Besides, the “effect on metastatic tumor growth” value in [6] (1.25 mg/kg/day i.v., 4 weeks) is recorded as “potently inhibited the metastatic tumor growth”. In addition, the “metastatic tumor growth in lung tissue, histochemical study” value in series [6] (hematoxylin and eosin stained lung sections, FIG. 6c) was “not observed”. Also, in series [6] (tumor-bearing mice, 1.25 mg/kg/day i.v.), the “toxicity on tested mice” value is given as “no toxicity”. Moreover, the LD50 entry with male C57BL/6 mouse is given as “about 1100 mg/kg”. Also, the “bFGF-stimulated BCE cell proliferation” value with BCE cell is recorded as “potently inhibited”.

B2: Recombinant Saxatilin: Saxatilin expressed in Pichia pastoris transformed with pPSAX, obtained in Example 6 (protein)
chain: B1 chain
Turning to B2, the IC50 in series [1] was determined as 139 nM.

Usually IC50 stands for the midpoint of a concentration-inhibition curve.

The values are drawn from patent US7033788B2, “Protein derived from Agkistrodon saxatilis emelianov and process preparing the same” (priority 2002, dated 2006).
